First the molecules themselves.
B1: LPCAT4 (parent)
chain: HDPLYGKLFSTYLRPPHTSRGTSQ
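Further: lentivirally expressed fusions sorted by FACS into six bins by GFP to DsRed ratio, PSI derived from sequencing read proportions per bin multiplied by bin number.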

This data set covers variants of B1. Description: protein stability index of a GFP-peptide fusion (GPS, HEK-293T) (PSI 1-6); higher = more stable. The note with it: c terminus: a fixed tail appended.
With HDPLYGKLFSTYLRPPHTSEGTSQ [R20E], the protein stability index was 3.53. Under HDPLYGKLFSTYLRPPHTSVGTSQ [R20V] stands 2.29; under HDPLYGKLFSTYLRPPHTSIGTSQ [R20I], 2.43; under HDPLYGKLFSTYLRPPHTSCGTSQ [R20C], 2.36. Consider HDPLYGKLFSTYLRPPHTSLGTSQ [R20L], for which the protein stability index is 2.19.

Consider HDPLYGKLFSTYLRPPHTSTGTSQ [R20T], for which the protein stability index is 2.67. Under HDPLYGKLFSTYLRPPHTSMGTSQ [R20M] stands 2.08; under HDPLYGKLFSTYLRPPHTSHGTSQ [R20H], 2.86; under HDPLYGKLFSTYLRPPHTSSGTSQ [R20S], 2.58. On to HDPLYGKLFSTYLRPPHTSWGTSQ [R20W], for which the protein stability index is 2.2. Under HDPLYGKLFSTYLRPPHTSNGTSQ [R20N] stands 2.56; under HDPLYGKLFSTYLRPPHTSFGTSQ [R20F], 2.17. The same measure for HDPLYGKLFSTYLRPPHTSQGTSQ [R20Q]: 2.85; for HDPLYGKLFSTYLRPPHTSGGTSQ [R20G]: 2.83.

For the variant HDPLYGKLFSTYLRPPHTSPGTSQ [R20P], the protein stability index was 2.66. Under HDPLYGKLFSTYLRPPHTSAGTSQ [R20A] stands 2.78. Under HDPLYGKLFSTYLRPPHTSDGTSQ [R20D] stands 2.67.

On to HDPLYGKLFSTYLRPPHTSKGTSQ [R20K], for which the protein stability index turned out to be 2.8. Under HDPLYGKLFSTYLRPPHKSRGTSQ [T18K] stands 2.65; under HDPLYGKLFSTYLRPPHVSRGTSQ [T18V], 2.68. For the variant HDPLYGKLFSTYLRPPHCSRGTSQ [T18C], the protein stability index came out at 2.66. As to HDPLYGKLFSTYLRPPHHSRGTSQ [T18H], the protein stability index is 2.61. Under HDPLYGKLFSTYLRPPHLSRGTSQ [T18L] stands 2.42; under HDPLYGKLFSTYLRPPHISRGTSQ [T18I], 2.52. The same measure for HDPLYGKLFSTYLRPPHNSRGTSQ [T18N]: 3.05; for HDPLYGKLFSTYLRPPHDSRGTSQ [T18D]: 2.83. Under HDPLYGKLFSTYLRPPHYSRGTSQ [T18Y] stands 2.29; under HDPLYGKLFSTYLRPPHQSRGTSQ [T18Q], 2.61. Turning to HDPLYGKLFSTYLRPPHRSRGTSQ [T18R], the protein stability index stood at 2.57. Under HDPLYGKLFSTYLRPPHWSRGTSQ [T18W] stands 2.12. The same measure for HDPLYGKLFSTYLRPPHMSRGTSQ [T18M]: 2.57; for HDPLYGKLFSTYLRPPHSSRGTSQ [T18S]: 2.3. Take HDPLYGKLFSTYLRPPHESRGTSQ [T18E]: the protein stability index was determined as 2.6. On to HDPLYGKLFSTYLRPPHGSRGTSQ [T18G], for which the protein stability index came out at 2.41. As for HDPLYGKLFSTYLRPPHPSRGTSQ [T18P], the protein stability index was 2.45.

Regarding HDPLYGKLFSTYLRPPHASRGTSQ [T18A], the protein stability index stood at 2.52.

Turning to HDPLYGKLFSTYLRPPHFSRGTSQ [T18F], the protein stability index was determined as 2.24.

On to HDPLYGKLFSTYLRPPHTSRGTWQ [S23W], for which the protein stability index was 2.4. On to HDPLYGKLFSTYLRPPHTSRGTCQ [S23C], for which the protein stability index stood at 2.61. The same measure for HDPLYGKLFSTYLRPPHTSRGTMQ [S23M]: 2.34. Under HDPLYGKLFSTYLRPPHTSRGTVQ [S23V] stands 2.49; under HDPLYGKLFSTYLRPPHTSRGTFQ [S23F], 2.09; under HDPLYGKLFSTYLRPPHTSRGTTQ [S23T], 2.66. The same measure for HDPLYGKLFSTYLRPPHTSRGTNQ [S23N]: 2.77; for HDPLYGKLFSTYLRPPHTSRGTRQ [S23R]: 2.45. As to HDPLYGKLFSTYLRPPHTSRGTKQ [S23K], the protein stability index is 2.51. As for HDPLYGKLFSTYLRPPHTSRGTGQ [S23G], the protein stability index was 2.18. Turning to HDPLYGKLFSTYLRPPHTSRGTYQ [S23Y], the protein stability index was determined as 2.19.

On to HDPLYGKLFSTYLRPPHTSRGTPQ [S23P], for which the protein stability index worked out at 2.87. Under HDPLYGKLFSTYLRPPHTSRGTEQ [S23E] stands 2.64; under HDPLYGKLFSTYLRPPHTSRGTAQ [S23A], 3. Regarding HDPLYGKLFSTYLRPPHTSRGTQQ [S23Q], the protein stability index came out at 2.52. The same measure for HDPLYGKLFSTYLRPPHTSRGTHQ [S23H]: 2.73; for HDPLYGKLFSTYLRPPHTSRGTIQ [S23I]: 2.3. Turning to HDPLYGKLFSTYLRPPHTSRGTLQ [S23L], the protein stability index turned out to be 2.39.

Take HDPLYGKLFSTYLRPPHTSRGTDQ [S23D]: the protein stability index was found to be 3.17. Take HDPLYGKLFSTYLRPPHTSRGTSW [Q24W]: the protein stability index was 2.13. Under HDPLYGKLFSTYLRPPHTSRGTST [Q24T] stands 2.53; under HDPLYGKLFSTYLRPPHTSRGTSE [Q24E], 3.01. Regarding HDPLYGKLFSTYLRPPHTSRGTSI [Q24I], the protein stability index came out at 2.11. Under HDPLYGKLFSTYLRPPHTSRGTSY [Q24Y] stands 2.07; under HDPLYGKLFSTYLRPPHTSRGTSC [Q24C], 2.64; under HDPLYGKLFSTYLRPPHTSRGTSP [Q24P], 2.43. The same measure for HDPLYGKLFSTYLRPPHTSRGTSA [Q24A]: 2.28; for HDPLYGKLFSTYLRPPHTSRGTSM [Q24M]: 2.45; for HDPLYGKLFSTYLRPPHTSRGTSV [Q24V]: 2.42. Regarding HDPLYGKLFSTYLRPPHTSRGTSL [Q24L], the protein stability index was found to be 2.29. Take HDPLYGKLFSTYLRPPHTSRGTSD [Q24D]: the protein stability index was found to be 3.28. In the case of HDPLYGKLFSTYLRPPHTSRGTSS [Q24S], the protein stability index is 2.72. The same measure for HDPLYGKLFSTYLRPPHTSRGTSF [Q24F]: 2.28; for HDPLYGKLFSTYLRPPHTSRGTSG [Q24G]: 2.36; for HDPLYGKLFSTYLRPPHTSRGTSN [Q24N]: 2.78. HDPLYGKLFSTYLRPPHTSRGTSH [Q24H]: the protein stability index came to 2.3. The same measure for HDPLYGKLFSTYLRPPHTSRGTSK [Q24K]: 2.56; for HDPLYGKLFSTYLRPPHTSRGTSR [Q24R]: 2.39; for HDPLYGKLFSTYLRPPHTSRDTSQ [G21D]: 3.4. Regarding HDPLYGKLFSTYLRPPHTSRYTSQ [G21Y], the protein stability index was determined as 1.87. The same measure for HDPLYGKLFSTYLRPPHTSRQTSQ [G21Q]: 2.95.

As to HDPLYGKLFSTYLRPPHTSRVTSQ [G21V], the protein stability index stood at 2.82. The same measure for HDPLYGKLFSTYLRPPHTSRETSQ [G21E]: 2.69; for HDPLYGKLFSTYLRPPHTSRNTSQ [G21N]: 2.42; for HDPLYGKLFSTYLRPPHTSRWTSQ [G21W]: 2. Under HDPLYGKLFSTYLRPPHTSRRTSQ [G21R] stands 2.42; under HDPLYGKLFSTYLRPPHTSRTTSQ [G21T], 2.49; under HDPLYGKLFSTYLRPPHTSRFTSQ [G21F], 2.46.

For the variant HDPLYGKLFSTYLRPPHTSRKTSQ [G21K], the protein stability index is 2.55. The same measure for HDPLYGKLFSTYLRPPHTSRATSQ [G21A]: 2.95. On to HDPLYGKLFSTYLRPPHTSRMTSQ [G21M], for which the protein stability index came out at 2.67. The same measure for HDPLYGKLFSTYLRPPHTSRITSQ [G21I]: 2.41; for HDPLYGKLFSTYLRPPHTSRPTSQ [G21P]: 2.56; for HDPLYGKLFSTYLRPPHTSRLTSQ [G21L]: 2.48. The same measure for HDPLYGKLFSTYLRPPHTSRSTSQ [G21S]: 2.67; for HDPLYGKLFSTYLRPPHTSRHTSQ [G21H]: 2.11. In the case of HDPLYGKLFSTYLRPPHTSRCTSQ [G21C], the protein stability index was 2.51.

The values are drawn from the supplement of paper PMC10567573.
